According to patent US7982017B2, “Antibodies recognizing a carbohydrate containing epitope on CD-43 and CEA expressed on cancer cells and methods using same” (BioAlliance C.V., priority 2007, dated 2011):

Assays:
COLO 205 cells [1] = experiment: Six-hour apoptosis assay (Annexin V / PI, FACS) in COLO 205; format: cell-based; conditions: 6 h
Description: (§1) 1.5×10^5 of COLO 205 cells were seeded into the wells of 96-well plates. Aliquots of purified m5F1, c5F1-v0, c5F1-v15, c5F1-v16 and control antibodies at the concentration ranging from 2 to 32 ug/ml were prepared freshly in culture medium and added to each well. The sample treated with m9E10 and h16C11A were used as isotype control. The treated cells were kept at 37° incubator for 6 h before FACS analysis for apoptosis. For cellular apoptosis assay, Annexin V staining was measured using Annexin-V-FITC Apoptosis Detection Kit (Strong Biotech, Cat. No. AVK250) following the manufacturer's instruction. In brief, the treated cells were harvested and resuspended in Annexin V binding buffer containing Annexin V-FITC at room temperature. After 15 min incubation in the dark, the cells were washed twice with 200 μl of Annexin V binding buffer. Before FACS analysis, 0.25 μg/ml of propidium iodide (PI) was added. All flow cytometric analyses were performed on a BD-LSR flow cytometer (Becton Dickinson) using the Cell Quest software. The Annexin VI positive and/or PI positive cells are considered apoptotic cells.
1.5×10^5 of Colo205 cells were seeded into the wells of 96-well plates. Aliquots of purified m5F1, c5F1, c5F1-v17, c5F1-v24, c5F1-v25 and control antibodies at the concentration ranging from 8 to 32 ug/ml were prepared freshly in culture medium and added to each well. The treated cells were kept at 37° incubator for 6 h before FACS analysis for apoptosis. For cellular apoptosis assay, Annexin V staining was measured using Annexin-V-FITC Apoptosis Detection Kit (Strong Biotech, Cat. No. AV 250) following the manufacturer's instruction. In brief, the treated cells were harvested and resuspended in Annexin V binding buffer containing Annexin V-FITC at room temperature. After 15 min incubation in the dark, the cells were washed twice with 200 ul of Annexin V binding buffer. Before FACS analysis, 0.25 ug/ml of propidium iodide (PI) was added. All flow cytometric analyses were performed on a BD-LSR flow cytometer (Becton Dickinson) using the Cell Quest software. The Annexin VI positive and/or PI positive cells are considered apoptotic cells.

SU.86.86 cells [2] = experiment: Binding to SU.86.86 pancreatic cancer cells by flow cytometry
Description: Purified m5F1 and control antibodies at 1 ug/ml were added to 2×10^5 SU.86.86 cells and incubated for 1 hour at 4° C., washed twice with PBS containing 1% FBS, followed by incubation with 1 ug/ml of corresponding secondary antibodies (R-PE-conjugated goat F(ab′)2 anti-mouse IgG(H+L), Southern Biotech, Cat. No. 1032-09) at 4° C. for 1 hour. At the end of staining, samples were washed twice with PBS containing 1% FBS and analyzed by flow cytometer. All flow cytometric analyses were performed on a BD-LSR flow cytometer (Becton Dickinson) using the Cell Quest software.
(§2) Binding experiments were carried out for antibodies c5F1.v15, c5F1.v16, and c5F1.v24. […] Apoptosis assay was carried out for antibody c5F1.v15.

SU.86.86 cells [3] = experiment: Apoptosis induction of SU.86.86 cells (6 h, Annexin V / PI); format: cell-based
Description: as §1, with “2×10^5” for “1.5×10^5”, “SU86.86” for “COLO 205”, “12-well” for “96-well”, “m5F1” for “m5F1, c5F1-v0, c5F1-v15, c5F1-v16 and control antibodies”, “Control antibody at 32 ug/ml was included for background signal measurement.” for “The sample treated with m9E10 and h16C11A were used as isotype control.”
as §2

COLO 205 cells [4] = experiment: Binding assay: flow cytometric binding of 5F1 antibodies to COLO 205 cells; conditions: for binding to Colo 205 (words): FIG. 3, 0.125 to 4 ug/ml
Description: Purified m5F1, c5F1-v0, c5F1-v15 and c5F1-v16 antibodies at the concentration ranging from 0.125 to 4 ug/ml were added to 1.5×10^5 COLO 205 cells and incubated for 30 min at 4° C., washed for twice with PBS containing 2% FBS and 0.05% NaN3, followed by incubation with 1 μg/ml of corresponding secondary antibodies (R-PE-conjugated goat F(ab′)2 anti-mouse IgG(H+L), Southern Biotech, Cat. No. 1032-09; or R-PE-conjugated goat anti-human IgG, Southern Biotech, Cat. No. 2040-09) at 4° C. for 30 min. At the end of staining, samples were washed twice with PBS containing 2% FBS and 0.05% NaN3 and analyzed by flow cytometer. All flow cytometric analyses were performed on a BD-LSR flow cytometer (Becton Dickinson) using the Cell Quest software.
Purified m5F1, c5F1-v0, c5F1-yl7, c5F1-v24 and c5F1-v25 antibodies at 1 ug/ml were added to 2×10^5 Colo 205 cells and incubated for 30 min at 4° C., washed for twice with PBS containing 1% FBS, followed by incubation with 1 ug/ml of corresponding secondary antibodies (R-PE-conjugated goat F(ab′)2 anti-mouse IgG(H+L), Southern Biotech, Cat. No. 1032-09; or R-PE-conjugated goat anti-human IgG, Southern Biotech, Cat. No. 2040-09) at 4° C. for 30 min. At the end of staining, samples were washed twice with PBS containing 1% FBS and 0.05% NaN3 and analyzed by flow cytometer. All flow cytometric analyses were performed on a BD-LSR flow cytometer (Becton Dickinson) using the Cell Quest software.

B1: m5F1: murine antibody 5F1, isotype murine IgG3; heavy chain V region SEQ ID NO:1, light chain V region SEQ ID NO:2 (antibody, V domains shown)
VH: MEWSWIFLFLLSGTAGVHSEVQLQQSGPELVKPGASVRMSCTASGYTFTSYVMHWIKQKPGQGLDWIGYINPYNGGTQYNEKFKGKATLTSDKSSSTAYMELSSLTSEDSAVYYCARRTFPYYFDYWGQGTTLTVSS
VL: MKLPVRLLVLMFWIPASSSDVLMTQTPLSLPVSLGDQASISCRSSQSILHSNGNTYLEWYLQKPGQSPKLLIYKVSNRFSGVPDRFSGSGSGTDFTLKISRVEAEDLGVYYCFQGSHAPLTFGAGTKLELK
modifications: Murine
In the case of B1, the “% of Annexin V and/or PI positive cells” value (COLO 205 cells [1]; Table 7, 2 ug/ml) is reported as 35%, the “% of Annexin V and/or PI positive cells” value (COLO 205 cells [1]; Table 7, 4 ug/ml) is reported as 53% and the “% of Annexin V and/or PI positive cells” value (COLO 205 cells [1]; Table 7, 8 ug/ml) is reported as 76%. For the same molecule, the “% of Annexin V and/or PI positive cells” value (COLO 205 cells [1]; Table 7, 16 ug/ml) was 92%, the “% of Annexin V and/or PI positive cells” value (COLO 205 cells [1]; Table 7, 32 ug/ml) was 93% and the “% of Annexin V and/or PI positive cells” value (COLO 205 cells [1]; Table 11 Exp. 1, 8 ug/ml) was 88%. For the same molecule, the “% of Annexin V and/or PI positive cells” value (COLO 205 cells [1]; Table 11 Exp. 1, 16 ug/ml) was 92%, the “% of Annexin V and/or PI positive cells” value (COLO 205 cells [1]; Table 11 Exp. 1, 32 ug/ml) was 92% and the “% of Annexin V and/or PI positive cells” value (COLO 205 cells [1]; Table 11 Exp. 2, 8 ug/ml) was 89%. For the same molecule, the “% of Annexin V and/or PI positive cells” value (COLO 205 cells [1]; Table 11 Exp. 2, 16 ug/ml) was 94%, the “% of Annexin V and/or PI positive cells” value (COLO 205 cells [1]; Table 11 Exp. 2, 32 ug/ml) was 96% and the “binding to SU.86.86 cells” value (SU.86.86 cells [2]) was “could bind”. The MFI (SU.86.86 cells [2]; Table 14, antibody at 1 ug/ml) was 131, the “% of Annexin V and/or PI positive cells” value (SU.86.86 cells [3]; 2 ug/ml) was 60% and the “% of Annexin V and/or PI positive cells” value (SU.86.86 cells [3]; 4 ug/ml) was 72%. The “% of Annexin V and/or PI positive cells” value (SU.86.86 cells [3]; 8 ug/ml) was 78%, the “% of Annexin V and/or PI positive cells” value (SU.86.86 cells [3]; 16 ug/ml) was 89% and the “% of Annexin V and/or PI positive cells” value (SU.86.86 cells [3]; 32 ug/ml) was 91%. The “apoptosis induction in SU.86.86 cells” value (SU.86.86 cells [3]; 2 to 32 ug/ml) was “induced apoptosis”, the “binding to Colo 205 (words)” value (COLO 205 cells [4]) was “significant binding” and the “Median Fluorescence Intensity (MFI)” value (COLO 205 cells [4]; Table 10, antibodies at 1 ug/ml) was 800.

B2: c5F1-v16: chimeric 5F1, heavy chain v16 (hinge C220S), light chain v0[L] (antibody)
heavy: EVQLQQSGPELVKPGASVRMSCTASGYTFTSYVMHWIKQKPGQGLDWIGYINPYNGGTQYNEKFKGKATLTSDKSSSTAYMELSSLTSEDSAVYYCARRTFPYYFDYWGQGTTLTVSSASTKGPSVFPLAPSSKSTSGGTAALGCLVKDYFPEPVTVSWNSGALTSGVHTFPAVLQSSGLYSLSSVVTVPSSSLGTQTYICNVNHKPSNTKVDKKVEPKSSDKTHTCPPCPAPELLGGPSVFLFPPKPKDTLMISRTPEVTCVVVDVSHEDPEVKFNWYVDGVEVHNAKTKPREEQYNSTYRVVSVLTVLHQDWLNGKEYKCKVSNKALPAPIEKTISKAKGQPREPQVYTLPPRDELTKNQVSLTCLVKGFYPSDIAVEWESNGQPENNYKTTPPVLDSDGSFFLYSKLTVDKSRWQQGNVFSCSVMHEALHNHYTQKSLSLSPGK
light: DVLMTQTPLSLPVSLGDQASISCRSSQSILHSNGNTYLEWYLQKPGQSPKLLIYKVSNRFSGVPDRFSGSGSGTDFTLKISRVEAEDLGVYYCFQGSHAPLTFGAGTKLELKRTVAAPSVFIFPPSDEQLKSGTASVVCLLNNFYPREAKVQWKVDNALQSGNSQESVTEQDSKDSTYSLSSTLTLSKADYEKHKVYACEVTHQGLSSPVTKSFNRGEC
With B2 the “apoptosis-inducing activity in COLO 205” value (COLO 205 cells [1]; 2 to 32 ug/ml, compared with m5F1) was “almost as efficient as m5F1”, the “% of Annexin V and/or PI positive cells” value (COLO 205 cells [1]; Table 7, 4 ug/ml) was 58% and the “% of Annexin V and/or PI positive cells” value (COLO 205 cells [1]; Table 7, 8 ug/ml) was 78%. The “% of Annexin V and/or PI positive cells” value (COLO 205 cells [1]; Table 7, 16 ug/ml) was 92%, the “% of Annexin V and/or PI positive cells” value (COLO 205 cells [1]; Table 7, 32 ug/ml) was 96% and the “binding to SU.86.86 cells” value (SU.86.86 cells [2]) was “significant binding”. The “binding to Colo 205 (words)” value (COLO 205 cells [4]) was “relatively less compared to c5F1” and the “binding to Colo 205 (words)” value (COLO 205 cells [4]; listed as c5F1v16) was “significant binding”.
